Results published in patent publication US20210369812A1, “OSTEOINDUCTIVE PEPTIDES, COMPOSITIONS, IMPLANTS, AND METHODS OF USE” (The Board of Regents of the University of Oklahoma, priority 2018, published 2021).
Entries after “also recorded” stand apart in the source; their conditions may differ.

How the values were obtained:
[1] = biological target: T1, BMPR2 (Homo sapiens, UniProt Q13873); assay: Biopanning of Ph.D.-12 phage library on immobilized BMPR2-Fc; assay type: binding; conditions: peptide displayed on p3 of M13 phage; 3 rounds of panning
T1 construct: purchased G&P Biosciences
T1 sequence (Q13873 27-150 limits assumed): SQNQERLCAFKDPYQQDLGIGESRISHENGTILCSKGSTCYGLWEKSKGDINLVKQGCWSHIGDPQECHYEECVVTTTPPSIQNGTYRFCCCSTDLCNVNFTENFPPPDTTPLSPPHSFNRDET
Method: The Ph.D.™-12 phage library was diluted in tris-buffered saline mixed with Tween-20 (TBS+0.1% v/v Tween-20 and abbreviated TBST) for a final concentration of 2×10^11 phage in 1 mL of TBST. The diluted library was then pipetted onto one of the wells of a 12-well poly-L-lysine plate followed by rocking the plate gently for 60 minutes at room temperature. […] This supernatant served as the starting phage library for subsequent binding selections. The phages which stuck to the plate were discarded.
This procedure is only applicable if the charge of the desired protein to be immobilized is negative, determined by checking the pI value of the protein. […]. This procedure was written for 12-well plates coated in poly-L-lysine (positively charged). Separate solutions of BMPR1A-Fc and BMPR2-Fc were prepared at 80 μg/ml in Tris-buffered saline (pH 7.5). In separate wells and on separate poly-L-lysine coated 12-well plates, 0.3 ml of each solution of receptor was added. The solutions of BMPR1A-Fc and BMPR2-Fc were swirled around the plate surface until the entire surface was wet. The plates were then incubated overnight at 4° C. with gentle agitation in a humidified container (a sealed plastic box with damp paper towels). Each individual receptor was now immobilized.
The following selection procedure is based off of the direct coating procedure outlined in the Ph.D.™-12 Phage Display Libraries instructional manual (New England Biolabs) with some alterations. This procedure was carried out after immobilizing the targets BMPR1A-Fc and BMPR2-Fc in a 12-well poly-L-lysine coated plate. A stock solution of tetracycline was prepared (20 mg/ml in 1:1 ethanol:water). The coating solution containing the target receptors was poured off followed by firmly slapping the plates face down on a clean paper towel. Each well was then filled with blocking buffer (0.1 M NaHCO3 (pH 8.6), 5 mg/mL BSA, 0.02% NaN3. Filter sterilize, store at 4° C.) and incubated for 1 hour at 4° C. The blocking solution was then poured off followed by firmly slapping the plates down against a clean paper towel. Each plate was washed rapidly 6 times with Tris-buffered saline mixed with Tween-20 (TBS+0.1% v/v Tween-20). The plate was slapped against a clean paper towel each time. 1 ml of the phage library created from the negative selection process was then pipetted onto each of the target coated wells. The plates were then rocked gently at room temperature for 60 min. The non-binding phages were then discarded by pouring off the supernatant and slapping the plate face-down on a clean paper towel. The plate was then washed 10 times with TBST followed by slapping the plate face-down on a clean paper towel each time (a clean section of paper towel was used each time to prevent cross-contamination). The bound phages were then eluted by incubating with a nonspecific disruption buffer (0.2 M Glycine-HCl (pH 2.2), 1 mg/ml bovine serum albumin (BSA) for 15 minutes. The eluate (immersed in the disruption buffer) was then pipetted into a microcentrifuge tube followed by neutralization with 150 μl of 1 M Tris-HCl (pH 9.1). A small portion (˜1 μl) of this eluate could be titered and sequenced if desired. The rest of the eluate was amplified (see amplification of phage library section). Once amplified, the eluate was also titered. Determine the concentration of amplified phages by counting the blue plaques in titering as described. Dilute the amplified library to contain 2×10^11 phages in 1 mL of TBS (as little as 10^9 plaque forming units per ml can be used if there is not enough). A second poly-L-lysine 12-well plate was then coated with the target receptors to allow for a second round of biopanning carried out using the same steps except that the Tween-20 concentration in the wash steps was raised to 0.5% (v/v). The eluate from the second round was then amplified, titered and used in an additional 3rd round of panning on newly receptor coated plates. […]

[2] = biological target: T2, BMPR1A (Homo sapiens, UniProt P36894); assay: Enzyme-linked immune sorbent assay for receptor binding (BMPR1A); conditions: peptide on p3 of M13 phage; absorbance 450 nm; n=4; vs wild type phage
T2 construct: purchased G&P Biosciences
T2 sequence (P36894 24-152 limits assumed): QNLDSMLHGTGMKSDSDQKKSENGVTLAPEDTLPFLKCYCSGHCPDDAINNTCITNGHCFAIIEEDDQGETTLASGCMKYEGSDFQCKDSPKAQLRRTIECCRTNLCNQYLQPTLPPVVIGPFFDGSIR
From the text: Groups having the same lowercase letter assigned (above the bar) were not statistically different from each other. Groups having different letters assigned (above the bar) were statistically different from each other. […] The primary antibody was mouse anti-g3p (p8) IgG. The secondary antibody was anti-mouse IgG conjugated with horseradish peroxidase. The substrate, 3,3′,5,5′-Tetramethylbenzidine was detected at 450 nm after stopping the reaction with 1 M HCl.
Blocking buffer (0.1 M NaHCO3 (pH 8.6), 5 mg/ml BSA. Filter sterilized, stored at 4° C.) was prepared. TBS (50 mM Tris-HCl (pH 7.5), 150 mM NaCl, autoclaved, stored at room temperature) was prepared. Separate solutions of the target receptors were then made. For BMPR1A, a 10 μg/ml stock solution was made. For BMPR2, a 10 μg/ml solution was also made. Separate wells with n=4 for each different peptide bearing phage group were then coated with one of the receptors. The coating was done by adding 100 μl of the target solution to wells of a 96-well plate followed by swirling until the surface was completely wet. The plates were then allowed to incubate overnight at 4° C. with gentle agitation in a humidified container (a plastic box lined with damp paper towels). Any excess target solution was then removed, and the plate was slapped face-down on a clean paper towel. The wells of the plate were then blocked with 200 μl of blocking buffer for 1 hour at room temperature. […] The blocking buffer was then removed from each plate followed by 5 washes with 200 μl of TBST. Each time the plate was slapped against a clean section of paper towel face-down. […] After a brief pilot test, it should be noted that using 10^10 phage/ml was determined to work best, but other concentrations of virus also worked consistently. […] Then, […] of freshly prepared 3,3′,5,5′-Tetramethylbenzidine (TMB) was added to each well and the absorbance at 370 nm and 652 nm was monitored for 1 hour using an ELISA plate reader. […] The absorbance at 450 nm for each well was then measured.

## SGTQDSMVGWNK (Completely synthesized in the lab - Ph.D.-12 Phage Display Peptide Library Kit (New England Biolabs))
[1]
  Binding to BMPR2 found by biopanning (frequency among sequenced plaques): showed up as a result of biopanning on both BMPR1A alone and BMPR2 alone; also recorded: discovered to bind
[2]
  Relative binding strength in ELISA to BMPR1A: best binders

## VHVPLHRGAVSA (Completely synthesized in the lab - Ph.D.-12 Phage Display Peptide Library Kit (New England Biolabs))
[1]
  Binding to BMPR2 found by biopanning (frequency among sequenced plaques): discovered to bind
[2]
  Relative binding strength in ELISA to BMPR1A: best binders
